Laboratory results taken from the nanobody polyreactivity screen of Harvey et al. (2022).

Assay: yeast display, Sf9 membrane polyspecificity reagent, FACS + sequencing; frameworks hold sequencing errors
Summary of the method: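 In a synthetic yeast display library (Saccharomyces cerevisiae BJ5465), nanobody expression was induced with galactose for 36–48 hours. FACS gates were set low and high (top ~1%) using anti-HA fluorescence for expression and streptavidin fluorescence for binding of the Sf9 membrane reagent. Each polyreactivity label is drawn from the gate of origin.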

Sequence | polyreactivity (PSR sort gate)
QVQLVESGGGLVQAGGSLRLSCAASGSTLNDYAMGWYRQSPGKERELVAGINRGGSTNYADSVKGRFTISRDNAKNTVYLQMKSLKPVDTAVYYCAVRAYRWRSTLGLYYWGQGTQVTVSS | high polyreactivity
QVQLVESGGGLVQAGGSLRLSCAASGSTFAYNTMGWYRQAPGKERELVAAISQRGGSTYADTVKGRFTISRDNAKNTVYLQMNSLKPEENAVYYWAADGYTYKFDYWGQGTQVTVSS | low polyreactivity
QVQLVESVGGLVQAGGRLRLSCAASGSIFWFNAMGWYRQAPGKEREFVASISRSGGTTYYADSVKGRFTISRDNAKNTVYLQMNSLKPEDTAVYYCNARAYGNGLGTGYFGNHRYDYWGQGTQVTVSS | low polyreactivity
QVQLVESGGGLVQAGGSLRLICAASGTIFITNAMGWYRPAPGKERELVAAISGRGGSTYYADSVKGRFTISRDNAKNTVYLQMNSLKPEDTAVYYCNAYSYRVSGYDYWGQGTQVTVSS | high polyreactivity
QVQLVESGGGLVQAGGSLRLSCAASGLTFADYAMGWYRQAPGKERELVAAISRRGGSTYYADSVKGRFTISRDNAKNTVYLQMNSLKPEDTAVYYCAAGNRVNRFDYWGQGTQVTVSS | high polyreactivity
QVQLVESGGGLVQAGGSLRLSCAASGGTFRYYTMGWYRQAPGKERELVASISGGGRTYYADSVKGRFTISRDNAKITVYLQMNSLKPEDTAVYYCNARNRVYYTLSGYGYWGQGTQVTVSS | high polyreactivity
QVHLVESGGGLVQAGGSLRLSCAASGSTIRRYAMGWYRQAPGTERELVASITNRGGSTYYADSVKGLFTISRDNAKNTFYLQMNSLKPEDTAVYYCAKKGVYGPLNEYWGQGTQVTVSS | high polyreactivity
QVQLVESGGGLVQAGGSLRLSCAASGSIFYKYAMGWYRQARGKERELVAAINRGVSTYYADSVKGRFTISRDNAKNTVYLQLTSLKPEDTAVYYCNADSTELRGYYYWGLGTQVTVSS | low polyreactivity
QVPLVESGGGLVQAGGSLRLSCAASGLIFTGYAMGWYRQAPGKEREVVAAITSAGSTNYADSVKGRFTISRDNAKNTVYLQMNSLKPEDTAVYYCGASRTTTFSWYYLYYLVSKYYYWGQGTQVTVSS | low polyreactivity
QVQLVESGGGLVQAGGSLRLSCAASGRTFIGNVMGWSRQAPGKERELVAAITRSGGSTYYADSVKGRFTISRDNAKNTVYLQMNSLKPEDTAVYYCNAVRRTGGHGDYWGQGTQVTVSS | high polyreactivity
QVQLVDSRRGLVQAGGSLRLSCAASGRIFGYNAMGWYREAPGKVRELVAAISSGGGTNYADSVKGRFTISRDNAKNPVYLQMHSLKPEDTAVYYCAVRRRRYHTYYRGYDYWGQGTQVTVSS | low polyreactivity
QVQLVESGGGLVQAGGSLRLSCAASGSTFFRNAMGCYRQAPGKERELVADISASGGSTYYADSVKGRFTISRDNAKNTVYLQMNSLKPEDTAVYYCNALYIYFYNYLTMDYWGQGTQVTVSS | low polyreactivity
QVELVESGGGLVQAGGSLRLSCAASGLTFVSYAMGWYRQAPGKERELVAAISRSGGSTYYADSVKGRFTISLDNAKNTVYLQMNSLKPEDTAVYYCNAYSYVEFWAVYRYDYWGQGTQVTVSS | high polyreactivity
QVQLVESGGGLVQAGGSLRLSCAASGRTFWNYAMGWYRQAPGKERELVAVIRFSDVSTYYADSVKGRFTISRDNAKNTVYLQMNSLKPEDTAVYYCAAKGPRRWGSGFDYWGLGTQVTVSS | low polyreactivity
QVQLVESGGGLVQAGGSLRLSCAASGLIFVANTMGWYRQATGKERELVAAITSDGGSTSYADSVKGRFTISRDNAKNTVYLQMNSLKPEDTAVYHCAAEYGGSSAKYGYWGQGTQVTVSS | low polyreactivity
QVQLVESGGGIVQAGGSLRLSCAASGPIFGSYALRWARQAPGKERELVAAITRSGGSTYYADSVKGRFTISRDNAKNTVYLQMNILKPEDTAVYYCAAYFSFSGSAKFGYWGQGTQVTVSS | high polyreactivity
QVKLVESGGGLVQAGGSLRLSCGASVGTFYRYSMVWFRQAPGKERELVAVISKRGGTTYYADSVKRRFTISRDNANNTVNLQMNSLKPEDTAVYYCADRPYYWGQGTQVTVSS | high polyreactivity
QVQLVESGGGLVQAGGSLRLSCAASGSTFVRYVMGWYRQAPGKERELVAAISRRGGSTYYADSVKGRFTISRDHAKNTVYLQMNSLKPEDTAVYYCARTVGYRTLLESDSWGQGTQVTVSS | high polyreactivity
QVQLQERGGALVQAGGSLRLICAATGNITVTGFMGWYRQSPGKERELVASIAIGGTTYYADSVKGRFSISRDNAKNTVYLQRNSLKQEDTAVSYGAARYLYYAYSYWGQGTQVTVSS | low polyreactivity
QVQLVESVGGLVQAGGSLRLSCAASGRTFKFYAMGWYRQAPGKERELVAAISSSGGRTYYADSVKGRFTISRDIAKNTVYLQMNSLKPVDTAVYYCARSSDYYFFGHYYWGQGTQVTVSS | high polyreactivity
QVQLVESGGCLVQAGGSLRLSCAASGRIFGYYAMGWYRQEPWKERELVAAISYSGGTTYYADSVKGRFTISRDNAKNTVYLQMNSLKPEDTAVYYCAAESYTYYADYGYGYWGQGTQVSVSS | high polyreactivity
QVQLVESGGGLVQAGGSLRLSCAPSGSTFRLYAMGWYRQAPGKERELVAVISGSGGNTYDADSVKGRFTISRDNAKNTVELQMNSLKPEDTAVDYCAAYSYRDRDDYWGQGTQGTVSS | high polyreactivity

Sequence | polyreactivity (PSR sort gate)
QVQLVESGGGLVQAGGSLRLSCAASGSIFYSNAKGWYRQAPGKERELVATITWSGGRTYYADSVKGRFTISRDNAKNTVYLQMNILKPEDTAVYYCAAVSIYWGQGTQVTVSS | low polyreactivity
QVQLVESGGGLVQAGGSLRLSFAASGFTFRLYAMGWYRQAPGKERELVAAITSSSGSTYYADSVKGRFTISRDNAKNTVYLQMNSLKPEDTAVYYCNADRGDSSRRYGYWGQGTQVTVSS | high polyreactivity
QVQLVESGGGLVQAGGSLRLSCAASGRTFPGNAMGWYRQAPGKERELVAAIRWRGGSTYYADSVKGRFTISRDNAKNTVYLQMNSLKPEDTAVYYCATRALGHFDWGQGTQVTVSS | low polyreactivity
QVQLVESGGGLVQAGGSLRLSCAASGSTFVGYAMVWYRQAPGKERELVAAISRSGGSTYYADSVKGRFTISRDNAKNTVYLQMNSLKPEDTAVYYCAAGARAFDDDFWGQGTQVNVSS | low polyreactivity
QVQLVESGGGLVQAGGSLRLSCAASGFIFSYNAMRWYRQAPGKERELTYADSVKGRFTISRDNAKNTVYLQMNSLKPEDTAVYFCAAGEYGRQYDGDYWGQATQVTVSS | low polyreactivity
QVQLVESGGGLVQAGGSLRLSCAAYGSTFQPYAMGWYRPATGKEREFVATISGSAGSTYYADSVKGRFKISRDNAKNTVYLQMNSLKPEDTAVDYCNADSGWFGYDYWGQGTQVTVSS | low polyreactivity
QDQLVESAGGLVQAGGSLRLSCAATGLNLVPNTMGLYRQAPGKETQLVAAISYSGGGTYYADSVKGRFTISRDNAKNTVYLQMNSLKPEDTAVYYCAAYVKREYAPYGYWGQGTQVTVSS | low polyreactivity
QVQLVQSGGGLFQAGGSLRLSCAASGRTFEPNAMGWYRQAPGKERQLVAAITNGGSTSYADSVKGRFTISRDNAKNSVYLQMNSLKPEDTAVYYFAGDLGRNLLHTYYYWGQGTQVTVSS | low polyreactivity
QVQLVESGGGLVQAGGRLRLSCAASGRSFYSYTMGWYRQAPGKERELVAAIRKSGGRTYYADSVKGRFTISRDNAKNTVYLQMNSLKPEDTAVYYCATTNYELSYYYWGQGTQVTVSS | high polyreactivity
QVQLVESGGGLVQAGGSLRLSCAASGSTFEYYAMGWYRQAPGKERELVATMSIDGRTNYADSVKGRFTISRDNAKNTVYLQMNSLKPEDTAVYYCAARPYWRHRYDYWGQGTQVTVSS | low polyreactivity
QVQLVESGGGLVQAGGSLRLSCAASGGIFYVNAMGWYRQAPGKERELVAAITSDGVSTYYADSVKGRFTISRDNAKNTVYLQMNSLKPEDTAVYYCAARFQYYRKYDYWGQGTQVTVSS | low polyreactivity
HVQLVESGGGLVQAGGSLRLSCAASGFTFPIYTMGWYRQAPGKESELVAAISASGGRTYYADSVKGRFTISRDNAKNTVYFQMNSLNPEDTSVYFCAADGYRAPGNAYYYWGQGTQVTVSS | high polyreactivity
QVQLVESGGGLVQAGGSLRLSCAASGFTFYSYAMGWYRQEPGKEREFVAAITSRGGSTYYADSVKGRFTISRDNAKNTVYLQMNSLKPEDNAVYYCAAYAGYSDQARYYYWGQGTQVTVSS | high polyreactivity
QVQLVESGGGLVQAGGSLRLSCAASGSTFTAYAMGWYRQAPGKERELVADISDSGGSTYYADSVKGRFTISRDNAKNTVYLQMNSLKPEDTAVYYCAVDVRAYVVSKFDSWGQGTQVTVSS | low polyreactivity
QVQLVESGGGLVQAGGSLRLSCAASGSIFNGYAMGWYRQAPGKERELVAAISWSGVGTYYADSVKGRFTISRDNAKNTVYLEMNSLKPEDTAVYYCNAVATHDWLRVDTYEYWGQGTQVTVSS | low polyreactivity
QVQLVESGGGLVQAGGSLRLSCAASGSTFYGYAMGGYRQAPGKERELVAAISSSGGTTYYADSVKGRFTMSRDNAKNTVYLQMNSLKPEDTAVYYCAARRRSGTYWRSANDYWGQGTQVTVSS | high polyreactivity
QVQLVESGGGLVQAGGSLRLSCAASGSTFYWYAMGWYRQAPGKERELVAAIDSGGSTNYADSVKGRFTISRDNAKNTVYLQMNSLKPEDTAVYYCATVYYTIWDPTYEYDYWGQGTQVTVSS | low polyreactivity
QVQLVESGGGLVQAGGSLRLSCAASGITFYDNAMGWYRQAPGKERELVAGISYDGDSTYADSVKGRFTISRDNAKNTVYLQMNSLKPEDTAVYYCAALGPYDWLWAGDYWGQGTQVTVSS | low polyreactivity
QVQLVESGGGLVQAGGSLRLSCAASGIIFVRYAMGWYRQAPGKERELVAAISSGGGSTYYADSVKGRFTISRDNAKNTVYLQMNSLKPEDTAVYYCATVVYPYSPRYDYWGQGTQVTVSS | high polyreactivity
QVQLVESGGGLVQAGGSLRFSSPASGLTFGTYAMGWYRQAPGKERELVAAISTSGVRTYYADSVKGRFTISRDIAKNTVYLQMNSLKPEDTAVYYCAARYNRAYSRDYWGQGSQVTVSS | high polyreactivity
QVQLVESGGGLVQAGGSLRLSCAASGRTFDSYTMGWYRQAPGKERELVAAINYSVASTNYADSLKGRFTISRDNAKITVYLQMNSLKTEDTAVYYCNRASAGWGPGTQVTVSS | low polyreactivity
